Test results as given in patent publication US11872270B2, “A*03 restricted peptides for use in immunotherapy against cancers and related methods” (Immatics Biotechnologies GmbH, priority 2018, dated 2024).

Target: HLA-A*03:01 (Homo sapiens, UniProt P04439)
Assay: MHC binding assay (UV-ligand exchange, β2m ELISA)
Conditions: binding to HLA-A*03:01, UV-ligand exchange, β2m ELISA
From the text: Candidate peptides for T cell based therapies according to the present invention were further tested for their MHC binding capacity (affinity). The individual peptide-MHC complexes were produced by UV-ligand exchange, where a UV-sensitive peptide is cleaved upon UV-irradiation and exchanged with the peptide of interest as analyzed. Only peptide candidates that can effectively bind and stabilize the peptide-receptive MHC molecules prevent dissociation of the MHC complexes. To determine the yield of the exchange reaction, an ELISA was performed based on the detection of the light chain (β2m) of stabilized MHC complexes. The assay was performed as generally described in Rodenko et al. (Rodenko et al., 2006) 96 well MAXISorp plates (NUNC) were coated over night with 2 ug/ml streptavidin in PBS at room temperature, washed 4× and blocked for 1 h at 37° C. in 2% BSA containing blocking buffer. Refolded HLA-A*02:01/MLA-001 monomers served as standards, covering the range of 15-500 ng/ml. Peptide-MHC monomers of the UV-exchange reaction were diluted 100-fold in blocking buffer. Samples were incubated for 1 h at 37° C., washed four times, incubated with 2 ug/ml HRP conjugated anti-β2m for 1 h at 37° C., washed again and detected with TMB solution that is stopped with […]. Absorption was measured at 450 nm. Candidate peptides that show a high exchange yield (preferably higher than 50%, most preferred higher than 75%) are generally preferred for a generation and production of antibodies or fragments thereof, and/or T cell receptors or fragments thereof, as they show sufficient avidity to the MHC molecules and prevent dissociation of the MHC complexes.

Substance	Peptide exchange (MHC class I binding score, peptide exchange yield)
50 (HSAGIFSMY; listed as Homo sapiens) [compound 50]	++ (>20% = ++)
62 (GIFPKIMPK; listed as Homo sapiens) [compound 62]	++++ (>75% = ++++)
120 (TRMQKAGFLYY; listed as Homo sapiens) [compound 120]	++ (>20% = ++)
101 (HMDEFKRTQK; listed as Homo sapiens) [compound 101]	+++ (>50 = +++)
61 (SLYDSEPRKK; listed as Homo sapiens) [compound 61]	++++ (>75% = ++++)
205 (RVYPRPPSK; listed as Homo sapiens) [compound 205]	++++ (>75% = ++++)
84 (QLYSPPSPSYR; listed as Homo sapiens) [compound 84]	++++ (>75% = ++++)
117 (TVFVELWLK; listed as Homo sapiens) [compound 117]	++ (>20% = ++)
103 (SIYKKAVYR; listed as Homo sapiens) [compound 103]	++++ (>75% = ++++)
206 (RLYEMILQR; listed as Homo sapiens) [compound 206]	++++ (>75% = ++++)
196 (AISSTVLGK; listed as Homo sapiens) [compound 196]	++++ (>75% = ++++)
80 (ALCGTQLFY; listed as Homo sapiens) [compound 80]	++++ (>75% = ++++)
35 (VLLLLSLLH; listed as Homo sapiens) [compound 35]	++ (>20% = ++)
262 (TMWQIPQEFVK; listed as Homo sapiens) [compound 262]	++++ (>75% = ++++)
183 (KVYIPPIINK; listed as Homo sapiens) [compound 183]	++++ (>75% = ++++)
199 (IVFPDVISK; listed as Homo sapiens) [compound 199]	++++ (>75% = ++++)
125 (VVYDTMIEKF; listed as Homo sapiens) [compound 125]	++++ (>75% = ++++)
204 (VAFIPLSNK; listed as Homo sapiens) [compound 204]	++++ (>75% = ++++)
43 (TVYDSIWCNMK; listed as Homo sapiens) [compound 43]	++++ (>75% = ++++)
256 (AVIGALLAVGATK; listed as Homo sapiens) [compound 256]	+++ (>50 = +++)
169 (ATNGKVLKKR; listed as Homo sapiens) [compound 169]	++++ (>75% = ++++)

Substance	Peptide exchange (MHC class I binding score, peptide exchange yield)
6 (SIFGLAPGK; listed as Homo sapiens) [compound 6]	++++ (>75% = ++++)
138 (VSLSKMLKK; listed as Homo sapiens) [compound 138]	+++ (>50 = +++)
47 (ALFGNALVFY; listed as Homo sapiens) [compound 47]	++++ (>75% = ++++)
90 (RTALLWGLKK; listed as Homo sapiens) [compound 90]	++++ (>75% = ++++)
165 (AATIISSAK; listed as Homo sapiens) [compound 165]	+ (>10% = +)
203 (IVAFIPLSNK; listed as Homo sapiens) [compound 203]	++++ (>75% = ++++)
216 (RVSSVKLISK; listed as Homo sapiens) [compound 216]	+++ (>50 = +++)
114 (SLLTVSGAWAK; listed as Homo sapiens) [compound 114]	++++ (>75% = ++++)
54 (GVTITKTLK; listed as Homo sapiens) [compound 54]	+++ (>50 = +++)
22 (EGLFLLGCVK; listed as Homo sapiens) [compound 22]	+++ (>50 = +++)
58 (VLYRPQLEK; listed as Homo sapiens) [compound 58]	++++ (>75% = ++++)
13 (AVAFFVLPSK; listed as Homo sapiens) [compound 13]	++++ (>75% = ++++)
181 (RVAEEILIK; listed as Homo sapiens) [compound 181]	+++ (>50 = +++)
15 (RLYAPVVNISRL; listed as Homo sapiens) [compound 15]	+++ (>50 = +++)
42 (RVCMTVDSLVNK; listed as Homo sapiens) [compound 42]	++++ (>75% = ++++)
12 (KVLTRNIEY; listed as Homo sapiens) [compound 12]	+++ (>50 = +++)
67 (VVREILHAQTLK; listed as Homo sapiens) [compound 67]	+++ (>50 = +++)
212 (RTIDRSVFK; listed as Homo sapiens) [compound 212]	++++ (>75% = ++++)
134 (SLLKPSGDYFK; listed as Homo sapiens) [compound 134]	+++ (>50 = +++)
192 (RSYSHVVLK; listed as Homo sapiens) [compound 192]	++++ (>75% = ++++)
28 (STLECILYK; listed as Homo sapiens) [compound 28]	++++ (>75% = ++++)

Substance	Peptide exchange (MHC class I binding score, peptide exchange yield)
119 (RMGFRTLSK; listed as Homo sapiens) [compound 119]	++++ (>75% = ++++)
83 (KLADSVMAGK; listed as Homo sapiens) [compound 83]	++++ (>75% = ++++)
151 (KVASFTVIGY; listed as Homo sapiens) [compound 151]	+++ (>50 = +++)
109 (KLQNLPTLLY; listed as Homo sapiens) [compound 109]	+++ (>50 = +++)
93 (SVEGLSRRLK; listed as Homo sapiens) [compound 93]	+++ (>50 = +++)
261 (AVAQKLLSH; listed as Homo sapiens) [compound 261]	++++ (>75% = ++++)
190 (RSKWSNVFK; listed as Homo sapiens) [compound 190]	++++ (>75% = ++++)
132 (ASSFRPLLSK; listed as Homo sapiens) [compound 132]	+++ (>50 = +++)
24 (KLETGVVKK; listed as Homo sapiens) [compound 24]	++++ (>75% = ++++)
213 (KLYPTHACR; listed as Homo sapiens) [compound 213]	++++ (>75% = ++++)
161 (MKTLPAMLGTGK; listed as Homo sapiens) [compound 161]	++ (>20% = ++)
131 (RVDSKQRYY; listed as Homo sapiens) [compound 131]	++++ (>75% = ++++)
219 (ALERKFRQK; listed as Homo sapiens) [compound 219]	++++ (>75% = ++++)
153 (LASSPAGHK; listed as Homo sapiens) [compound 153]	+++ (>50 = +++)
106 (LLRSGLTLR; listed as Homo sapiens) [compound 106]	++ (>20% = ++)
174 (KMMKRLMTVEK; listed as Homo sapiens) [compound 174]	++++ (>75% = ++++)
78 (KTGTFVLYKS; listed as Homo sapiens) [compound 78]	+++ (>50 = +++)
225 (RVYPRPPSKTY; listed as Homo sapiens) [compound 225]	++++ (>75% = ++++)
124 (VVYDTMIEK; listed as Homo sapiens) [compound 124]	+++ (>50 = +++)
34 (AIGTPLIGK; listed as Homo sapiens) [compound 34]	+++ (>50 = +++)
111 (ATSPPASVR; listed as Homo sapiens) [compound 111]	++++ (>75% = ++++)
